Molecular target: Gal4 DNA binding domain (DBD) fused to the RXR ligand binding domain (GBD:RXR) (yeast; human) (UniProt P04386)
Experiment: cell-based or functional assay

increase in the sensitivity of chemical complementation (yeast growth in response to 9cRA) against GBD:RXR alone: 1000 fold
Substance: human nuclear receptor coactivator ACTR fused to the yeast Gal4 activation domain (ACTR:GAD) (from UniProt Q9Y6Q9 1-1424)

From patent US20110027820A1
